This passage reports protein stability index results from the supplement of paper PMC10567573.

± gives the standard deviation.

This data set is described as follows: protein stability index of a GFP-peptide fusion (GPS, HEK-293T) (PSI 1-6); higher = more stable. Particulars: c terminus: a fixed tail appended.
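Note: 24-mer peptide tiles fused after GFP, lentivirally expressed, FACS-sorted into six equal bins by GFP/DsRed ratio, decoded by Illumina sequencing, PSI is the read-weighted mean bin number.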

Consider LHTANLGDSGFLVVRGGEVVHRSD [PPTC7], for which the protein stability index turned out to be 3.62 ± 0.11 (treatment: DMSO) and 3.76 ± 0.14 (treatment: MLN4924 1 uM, 8 h).
Regarding LIQFLEQVHQGIKGMVLDENYNNL [CPN1], the protein stability index is, setting by setting: (treatment: DMSO) 2.62 ± 0.065; (treatment: MLN4924 1 uM, 8 h) 3.07 ± 0.61.
LISGVTLDNCVEVGRIANTYNLTE [KLHL13] gave a protein stability index (treatment: DMSO) of 2.89 ± 0.18 and a protein stability index (treatment: MLN4924 1 uM, 8 h) of 2.77 ± 0.15.
Regarding LKALTRNVNRLNESFRDLQLRLLQ [SCARA5], the protein stability index (treatment: DMSO) is 2.37 ± 0.38 and the protein stability index (treatment: MLN4924 1 uM, 8 h) came to 2.13 ± 0.46.
For LKDVKSTLEKCEKVKTMEVTSVSI [TRIM39], the protein stability index runs as follows: (treatment: DMSO) 3.92 ± 0.16; (treatment: MLN4924 1 uM, 8 h) 3.89 ± 0.17.
Turning to LKNTPRFKRRRVRRRRMETIVFLD [PCMTD2], the protein stability index came out at 2.9 ± 0.19 (treatment: DMSO) and 3.33 ± 0.3 (treatment: MLN4924 1 uM, 8 h).
As for LKTADWRVFLFQAPSKEEMLSWIL [PSD2], the protein stability index is 2.16 ± 0.57 (treatment: DMSO) and 2.04 ± 0.38 (treatment: MLN4924 1 uM, 8 h).
Consider LKTSNLPEELRKVFITYSMDTAME [TRAF3IP2], for which the protein stability index is 2.41 ± 0.28 (treatment: DMSO) and 2.43 ± 0.56 (treatment: MLN4924 1 uM, 8 h).
As for LKVTGKPDAETLKVMKQPRCGVPD [MMP1], the protein stability index is, setting by setting: (treatment: DMSO) 4.47 ± 0.3; (treatment: MLN4924 1 uM, 8 h) 4.49 ± 0.15.
In the case of LLAYLIRNGSERVVTSAREHIYDL [CLINT1], the protein stability index came to 2.85 ± 0.33 (treatment: DMSO) and 2.41 ± 0.28 (treatment: MLN4924 1 uM, 8 h).
As to LLSDVRFVLGKGRGAAAAGGPQRI [BTBD1], the protein stability index reads like this: (treatment: DMSO) 2.85 ± 0.63; (treatment: MLN4924 1 uM, 8 h) 3.04 ± 0.27.
As for LLTLPRPPLSGALASITETIQVHR [HDAC6], the protein stability index amounted to 3.12 ± 0.13 (treatment: DMSO) and 3.22 ± 0.28 (treatment: MLN4924 1 uM, 8 h).
LLTLRNSAQAPPDSISLHQPCNPP [DMRTC1] yielded a protein stability index (treatment: DMSO) of 3.62 ± 0.14 and a protein stability index (treatment: MLN4924 1 uM, 8 h) of 3.82 ± 0.15.
Turning to LLYDRGTKFGLFTPGSRIESILMS [CPOX], the protein stability index (treatment: DMSO) was 2.45 ± 0.46 and the protein stability index (treatment: MLN4924 1 uM, 8 h) was 2.14 ± 0.42.
As to LNAYMKSLLSLPVWVLMDEDVRIF [NCF4], the protein stability index worked out at 3.17 ± 0.86 (treatment: DMSO) and 2.54 ± 0.46 (treatment: MLN4924 1 uM, 8 h).
The like results for LNDQNLCIPASSSFVYGAVPIGAS [GAN] were, in that order, 3.07 ± 0.16 and 3.13 ± 0.17.
For LNLEEDRIQIWFQNRRAKLKRSHR [HESX1], in that order: 2.86 ± 0.18 and 3.16 ± 0.36.
With LNVHDLDSEQNGQVTCSILAYLPF [PCDHGA10], the protein stability index amounted to 2.24 ± 0.22 (treatment: DMSO) and 2.19 ± 0.41 (treatment: MLN4924 1 uM, 8 h).
For LPEDDGLEQDLQQVMVSGPNLNET [ARFIP2], in that order: 5.32 ± 0.32 and 5.43 ± 0.13.
Take LPFRDASFGNCTYNLTILDCLQGI [CDC14A]: the protein stability index is, setting by setting: (treatment: DMSO) 2.44 ± 0.59; (treatment: MLN4924 1 uM, 8 h) 2.71 ± 0.49.
LPKVLQKYWCVTATRVAPERLFGS [ZBED1]: the protein stability index (treatment: DMSO) is 2.47 ± 0.65 and the protein stability index (treatment: MLN4924 1 uM, 8 h) came out at 2.2 ± 0.21.
In the case of LPLETARESPSFKLEPMETERSPG [ZNF263], the protein stability index by setting is: (treatment: DMSO) 5.24 ± 0.13; (treatment: MLN4924 1 uM, 8 h) 5.36 ± 0.13.
On to LPLLESCSVRPDASVSSHRFFGPN [TCF25], for which the protein stability index is, setting by setting: (treatment: DMSO) 3.17 ± 0.24; (treatment: MLN4924 1 uM, 8 h) 3.27 ± 0.26.
The like results for LPNHRAAKRLWKVCVEHHTFFRLL [EPB41L3] were, in that order, 2.42 ± 0.34 and 2.36 ± 0.13.
Turning to LQAESPPVDPDSQADTVHSNPELD [DNAAF3], the protein stability index runs as follows: (treatment: DMSO) 5.7 ± 0.17; (treatment: MLN4924 1 uM, 8 h) 5.63 ± 0.27.
For LQANDVFHKQQWFNCIRAAIAPFQ [NET1], in that order: 2.14 ± 0.26 and 2.24 ± 0.28.
For the sequence LQAQKEELQSLMHQPKGLEEENAQ [PBXIP1], the protein stability index runs as follows: (treatment: DMSO) 5.64 ± 0.29; (treatment: MLN4924 1 uM, 8 h) 5.45 ± 0.27.
Take LQELKKLKNSNYESIQQTARSIAE [PPTC7]: the protein stability index (treatment: DMSO) was 3.9 ± 0.51 and the protein stability index (treatment: MLN4924 1 uM, 8 h) turned out to be 3.76 ± 0.46.
The like results for LQLGDGGGCTVGVAGEGVRRKGEM [TRIM15] were, in that order, 4.71 ± 0.17 and 3.84 ± 0.45.
Turning to LQMAVLVEKQADTLNVIELNVQKT [STX11], the protein stability index was 2.59 ± 0.22 (treatment: DMSO) and 2.67 ± 0.26 (treatment: MLN4924 1 uM, 8 h).
Turning to LQQAQAQFRMAQEEARRNRLMRDM [SMG5], the protein stability index runs as follows: (treatment: DMSO) 3.89 ± 0.22; (treatment: MLN4924 1 uM, 8 h) 4.11 ± 0.27.
For LRDPLTSLSHTELEAAEVILEHAH [FCHSD1], in that order: 4.29 ± 0.25 and 4.44 ± 0.32.
Take LREKLRLREAEIARIRDEEAQRAS [LRRC45]: the protein stability index reads like this: (treatment: DMSO) 4.17 ± 0.56; (treatment: MLN4924 1 uM, 8 h) 4.65 ± 0.18.
Take LRENVPRVIMIVTDGRPQDSVAEV [MATN2]: the protein stability index turned out to be 3.088 ± 0.005 (treatment: DMSO) and 3.09 ± 0.17 (treatment: MLN4924 1 uM, 8 h).
For the sequence LRHSNPRADPLVCATGLLGSAPFL [SPNS1], the protein stability index worked out at 2.28 ± 0.31 (treatment: DMSO) and 2.75 ± 0.39 (treatment: MLN4924 1 uM, 8 h).
On to LRPAKRELRGAEPGRPARLDQLLD [SPSB4], for which the protein stability index is, setting by setting: (treatment: DMSO) 4.12 ± 0.2; (treatment: MLN4924 1 uM, 8 h) 4.03 ± 0.22.
